Reference: paper PMC2970747

Target: FLAG-Mfn2 (UniProt O95140)
Test: co-IP

UniProt O95140, sequence (O95140 whole entry): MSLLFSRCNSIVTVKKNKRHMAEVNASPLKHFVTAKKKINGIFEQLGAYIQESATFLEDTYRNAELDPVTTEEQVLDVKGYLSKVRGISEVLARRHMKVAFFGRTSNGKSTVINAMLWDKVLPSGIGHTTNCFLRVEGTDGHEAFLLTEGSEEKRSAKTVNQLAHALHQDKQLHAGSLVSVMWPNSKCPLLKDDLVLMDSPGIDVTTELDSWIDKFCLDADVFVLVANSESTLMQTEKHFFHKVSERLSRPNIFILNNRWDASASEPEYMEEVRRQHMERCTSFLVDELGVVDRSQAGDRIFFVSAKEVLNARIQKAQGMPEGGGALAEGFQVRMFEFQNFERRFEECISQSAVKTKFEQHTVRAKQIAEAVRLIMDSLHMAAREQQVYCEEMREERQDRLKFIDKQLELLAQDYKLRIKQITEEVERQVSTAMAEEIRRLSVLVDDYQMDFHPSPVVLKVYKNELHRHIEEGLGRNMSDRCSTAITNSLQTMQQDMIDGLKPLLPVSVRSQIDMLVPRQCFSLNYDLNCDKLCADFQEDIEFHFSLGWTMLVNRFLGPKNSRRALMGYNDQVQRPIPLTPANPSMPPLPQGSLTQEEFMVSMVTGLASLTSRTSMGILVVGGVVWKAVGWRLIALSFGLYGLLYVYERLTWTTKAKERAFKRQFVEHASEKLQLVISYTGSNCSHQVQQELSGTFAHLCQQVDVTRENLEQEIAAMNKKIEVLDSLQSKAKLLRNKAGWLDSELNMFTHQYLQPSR

Substance GFP-Bcl-xL/Bax H5 has a percent of GFP-Bcl-xL/Bax H5 bound to FLAG-Mfn2 of 3%.
